Assay results: the supplement of paper PMC9112550, “Optimization of the antimicrobial peptide Bac7 by deep mutational scanning” (BMC Biology, 2022)

Test system: Escherichia coli TOP10
Test: shrunken log2 fold change of peptide-encoding DNA abundance (4.5 h post-induction vs induction); higher = less antimicrobial activity (less host growth inhibition)
Details: time post-induction: 4.5 h; library: site-saturation at positions 5, 18, 19, 20
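Also: peptides expressed intracellularly from a pBAD plasmid library in pooled LB shake-flask culture, induced with 0.3% L-arabinose, DNA abundance read by NGS, three biological replicates, DESeq2 with apeglm shrinkage.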

Sequence	shrunken log2 fold change
RRIRCRPPRLPRPRPRPTIHPRP	-0.883
RRIRHRPPRLPRPRPRPHRRPRP	0.0762
RRIRWRPPRLPRPRPRPRVYPRP	-0.401
RRIRVRPPRLPRPRPRPQIAPRP	-0.0465
RRIRHRPPRLPRPRPRPESRPRP	-0.17
RRIRMRPPRLPRPRPRPNQHPRP	-0.0206
RRIRTRPPRLPRPRPRPTGWPRP	0.511
RRIRFRPPRLPRPRPRPRTEPRP	0.202
RRIRHRPPRLPRPRPRPPFTPRP	-0.176
RRIRHRPPRLPRPRPRPSAAPRP	0.334
RRIRRRPPRLPRPRPRPIKDPRP	-0.0902
RRIRIRPPRLPRPRPRPGMGPRP	0.132
RRIRVRPPRLPRPRPRPLVIPRP	-0.429
RRIRYRPPRLPRPRPRPKEVPRP	0.0274
RRIRDRPPRLPRPRPRPDTDPRP	0.0647
RRIRHRPPRLPRPRPRPWTEPRP	0.0218
RRIRPRPPRLPRPRPRPYMRPRP	-0.000384
RRIRVRPPRLPRPRPRPIMMPRP	-0.0138
RRIRRRPPRLPRPRPRPSWIPRP	-0.284
RRIRHRPPRLPRPRPRPPRGPRP	0.564
RRIRTRPPRLPRPRPRPSLSPRP	0.00222
RRIRERPPRLPRPRPRPLESPRP	-0.0735
RRIRPRPPRLPRPRPRPWAHPRP	-0.00675
RRIRMRPPRLPRPRPRPACIPRP	0.112
RRIRDRPPRLPRPRPRPWECPRP	-0.0018

Sequence	shrunken log2 fold change
RRIRYRPPRLPRPRPRPNGVPRP	0.0238
RRIRDRPPRLPRPRPRPGCRPRP	0.398
RRIRWRPPRLPRPRPRPIWIPRP	-0.186
RRIRMRPPRLPRPRPRPTQPPRP	0.176
RRIRSRPPRLPRPRPRPDTDPRP	0.0794
RRIRNRPPRLPRPRPRPLPMPRP	-0.14
RRIRYRPPRLPRPRPRPMEDPRP	-0.0944
RRIRQRPPRLPRPRPRPLAKPRP	-0.041
RRIRSRPPRLPRPRPRPFAMPRP	-0.0258
RRIRNRPPRLPRPRPRPRDWPRP	0.0384
RRIRMRPPRLPRPRPRPMQKPRP	0.0563
RRIRWRPPRLPRPRPRPVISPRP	-0.0992
RRIRRRPPRLPRPRPRPLKTPRP	0.157
RRIRYRPPRLPRPRPRPIPVPRP	-0.0888
RRIRDRPPRLPRPRPRPQWQPRP	-0.0558
RRIRNRPPRLPRPRPRPSGWPRP	-0.137
RRIRVRPPRLPRPRPRPYTRPRP	-0.0163
RRIRRRPPRLPRPRPRPGTMPRP	0.186
RRIRHRPPRLPRPRPRPNLFPRP	-0.0861
RRIRYRPPRLPRPRPRPVRKPRP	0.195
RRIRARPPRLPRPRPRPNIHPRP	-0.333
RRIRGRPPRLPRPRPRPHKTPRP	-0.0617
RRIRHRPPRLPRPRPRPGCQPRP	0.0291
RRIRMRPPRLPRPRPRPMSPPRP	0.00473
RRIRHRPPRLPRPRPRPSCKPRP	-0.609

Sequence	shrunken log2 fold change
RRIRSRPPRLPRPRPRPGLHPRP	0.186
RRIRCRPPRLPRPRPRPYYSPRP	-0.437
RRIRERPPRLPRPRPRPIWAPRP	0.639
RRIRKRPPRLPRPRPRPSWDPRP	-0.164
RRIRYRPPRLPRPRPRPIWIPRP	-0.0319
RRIRTRPPRLPRPRPRPASQPRP	0.0336
RRIRLRPPRLPRPRPRPDVQPRP	0.0463
RRIRFRPPRLPRPRPRPQCWPRP	0.0388
RRIRMRPPRLPRPRPRPDRRPRP	-0.0127
RRIRHRPPRLPRPRPRPIIDPRP	-0.0219
RRIRRRPPRLPRPRPRPRDPPRP	0.74
RRIRSRPPRLPRPRPRPCKGPRP	-0.3
RRIRTRPPRLPRPRPRPDWYPRP	-0.622
RRIRRRPPRLPRPRPRPAFTPRP	0.118
RRIRWRPPRLPRPRPRPTYIPRP	-0.428
RRIRERPPRLPRPRPRPAFKPRP	0.106
RRIRPRPPRLPRPRPRPFRRPRP	0.0448
RRIRQRPPRLPRPRPRPGFFPRP	0.128
RRIRARPPRLPRPRPRPFASPRP	0.0388
RRIRFRPPRLPRPRPRPKDMPRP	-0.0249
RRIRNRPPRLPRPRPRPQCVPRP	-0.0063
RRIRSRPPRLPRPRPRPTKAPRP	0.266
RRIRHRPPRLPRPRPRPWATPRP	-0.0619
RRIRCRPPRLPRPRPRPSRPPRP	0.245
RRIRARPPRLPRPRPRPNRPPRP	-0.111
